Measured values: article PMC2633459 (Molecular Vision, 2009)
“And” between values parts separate entries of the source, which are not always exact repeats. Equal entries are not always repeated.

B1: wild type human βB1-crystallin (natural protein, UniProt P53674 1-252, looked up)
chain: MSQAAKASASATVAVNPGPDTKGKGAPPAGTSPSPGTTLAPTTVPITSAKAAELPPGNYRLVVFELENFQGRRAEFSGECSNLADRGFDRVRSIIVSAGPWVAFEQSNFRGEMFILEKGEYPRWNTWSSSYRSDRLMSFRPIKMDAQEHKISLFEGANFKGNTIEIQGDDAPSLWVYGFSDRVGSVKVSSGTWVGYQYPGYRGYQYLLEPGDFRHWNEWGAFQPQMQSLRRLRDKQWHLEGSFPVLATEPPK
notes: human βB1-crystallin, wild type, recombinant; Mixture of monomers and dimers at the concentrations of the 1:1 experiments; dimer at the higher concentration of the 5:1 experiment; source: E. coli, purified (successive ion-exchange chromatography)
B2: doubly deamidated mutant βA3 Q85E/Q180E (natural protein, human, UniProt P05813 1-215, looked up)
chain: METQAEQQELETLPTTKMAQTNPTPGSLGPWKITIYDQENFQGKRMEFTSSCPNVSERSFDNVRSLKVESGAWIGYEHTSFCGQEFILERGEYPRWDAWSGSNAYHIERLMSFRPICSANHKESKMTIFEKENFIGRQWEISDDYPSLQAMGWFNNEVGSMKIQSGAWVCYQYPGYRGYEYILECDHHGGDYKHWREWGSHAQTSQIQSIRRIQQ
notes: human βA3-crystallin with Q85E and Q180E (mimic of deamidation), recombinant; Homo-dimer by SEC-MALS at 37 °C; precipitates at 55 °C when alone; also called DM βA3; βA3 DM; source: E. coli, purified (successive ion-exchange chromatography)

How the values were obtained:
[1] = molecular target: the molecule itself; assay: SEC-MALS; each crystallin alone, incubated 90 min at 37 °C; Superose 12 10/300 GL; pH 6.8, 29 mM Na2HPO4, 29 mM NaH2PO4, 100 mM KCl, 1 mM EDTA, 1 mM DTT
[2] = molecular target: B2; assay: native gel or EMSA; blue-native PAGE, 4%–12% Bis-Tris gel, pH 7.0, 200 V, 4 °C; mixtures incubated at 37 °C for 60 min before the gel; conditions: both partners purified
[3] = molecular target: B1; assay: SEC-MALS; 1:1 molar ratio of βA3 (WT or DM) with βB1 or βB2, final 0.4–0.5 mg/ml, incubated 90 min at 55 °C; filtered before injection; same buffer; conditions: both partners purified
[4] = molecular target: the molecule itself; assay: SEC-MALS; 5:1 molar ratio of βB1 to βA3 (to favour the βB1 dimer), injected immediately (0 min) or after 30 min at 37 °C; same buffer

binding result [2]	binding result [3]	Binder	stoichiometry N [1]	stoichiometry N [4]
binds		wild type human βB2-crystallin (natural protein, UniProt P43320 1-205, looked up, human βB2-crystallin, wild type, recombinant; source: E. coli, purified (successive ion-exchange chromatography)) MASDHQTQAGKPQSLNPKIIIFEQENFQGHSHELNGPCPNLKETGVEKAGSVLVQAGPWVGYEQANCKGEQFVFEKGEYPRWDSWTSSRRTDSLSSLRPIKVDSQEHKIILYENPNFTGKKMEIIDDDVPSFHAHGYQEKVSSVRVQSGTWVGYQYPGYRGLQYLLEKGDYKDSSDFGAPHPQVQSVRRIRDMQWHQRGAFHPSN	2 and 4	
		B1	2	
	binds	wild type human βA3-crystallin (natural protein, UniProt P05813 1-215, looked up, human βA3-crystallin, wild type, recombinant; no tag is mentioned; also called WT βA3; βA3 WT; source: E. coli, purified (successive ion-exchange chromatography)) METQAEQQELETLPTTKMAQTNPTPGSLGPWKITIYDQENFQGKRMEFTSSCPNVSERSFDNVRSLKVESGAWIGYEHTSFCGQQFILERGEYPRWDAWSGSNAYHIERLMSFRPICSANHKESKMTIFEKENFIGRQWEISDDYPSLQAMGWFNNEVGSMKIQSGAWVCYQYPGYRGYQYILECDHHGGDYKHWREWGSHAQTSQIQSIRRIQQ		2
		B2	2	
